According to patent US20250222029A1:

Target: HER2 (human epidermal growth factor receptor 2) (human) (UniProt P04626)
Assay: cell-based or functional assay

## CasMab250 (H/L)-based CAR with medium spacer (IgG4 hinge & CH3 domain) and CD28-CD3ζ1XX intracellular signaling domains
  maximal cytolysis of SKOV3 tumor cells (xCELLigence, E:T 1:1): 90%
